# Laboratory results from US11541126B1, “Anti-ASGR1 antibody TLR8 agonist comprising conjugates and uses thereof” (Silverback Therapeutics, Inc., priority 2020, dated 2023).
# T1: rat ASGR1 (Rattus norvegicus, UniProt P02706)
# T1 construct: expressed in transfected cells; host or cells: CHO-S
# T1 sequence (P02706 1-284): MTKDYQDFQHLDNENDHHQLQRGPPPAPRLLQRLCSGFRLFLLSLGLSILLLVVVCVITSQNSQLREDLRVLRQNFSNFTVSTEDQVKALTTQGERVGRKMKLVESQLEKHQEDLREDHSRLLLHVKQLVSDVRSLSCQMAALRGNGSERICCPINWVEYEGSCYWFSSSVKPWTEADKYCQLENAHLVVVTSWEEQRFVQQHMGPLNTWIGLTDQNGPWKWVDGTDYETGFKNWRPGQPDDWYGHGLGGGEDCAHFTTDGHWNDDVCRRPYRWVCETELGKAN
# T2: human ASGR1 extracellular domain (ECD) (Homo sapiens, UniProt P07306)
# T2 sequence (P07306 62-291 limits assumed): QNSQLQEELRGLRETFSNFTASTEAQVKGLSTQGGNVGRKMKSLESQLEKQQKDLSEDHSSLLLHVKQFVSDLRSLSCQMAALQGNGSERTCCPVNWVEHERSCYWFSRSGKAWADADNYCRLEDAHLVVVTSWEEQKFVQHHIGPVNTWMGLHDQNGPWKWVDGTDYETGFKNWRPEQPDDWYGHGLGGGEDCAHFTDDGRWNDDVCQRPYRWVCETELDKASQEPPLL
# T3: rat CLEC10A ECD (Rattus norvegicus, UniProt P49301)
# T3 construct: His-tagged rat CLEC10A ECD (R&D Systems) was immobilized to OCTET® Penta-His biosensors; purchased R&D Systems
# T3 sequence (P49301 59-306 limits assumed): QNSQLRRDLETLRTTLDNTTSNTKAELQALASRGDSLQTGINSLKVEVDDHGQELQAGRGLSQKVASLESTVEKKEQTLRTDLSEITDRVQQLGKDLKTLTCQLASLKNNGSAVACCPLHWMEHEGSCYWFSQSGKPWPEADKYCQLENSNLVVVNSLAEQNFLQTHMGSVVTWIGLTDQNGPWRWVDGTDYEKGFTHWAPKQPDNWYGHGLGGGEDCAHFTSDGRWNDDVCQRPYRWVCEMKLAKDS
# B1: hzH8K-1: "humanized anti-ASGR1 antibodies hzH8K-1 and hzH8K-10 as compared to parent mouse anti-ASGR1 antibody H8K" (antibody, V domains shown)
# VH: QVQLQESGPGLVKPSQTLSLTCTVSGGSISSDYAWNWIRQHPGKGLEWIGYRSYRGSTSYNPSLKSRVTISVDTSKNQFSLKLSSVTAADTAVYYCARRGYYGSSSHWYFDVWGQGTTVTVSS
# VL: DIQMTQSPSSLSASVGDRVTITCRASENIYSYLAWYQQKPGKAPKLLIYNAKTLAEGVPSRFSGSGSGTDFTLTISSLQPEDFATYYCQHHYGTPLTFGGGTKVEIK
# modifications: Synthetic sequence hzH8K VH; Synthetic sequence hzH8K VL
# B2: hzL4L-7: "humanized anti-ASGR1 antibodies hzL4L-7 and hzL4L-14 as compared to parent mouse anti-ASGR1 antibody L4L" (antibody, V domains shown)
# VH: QVQLQESGPGLVKPSQTLSLTCTVSGYSISSDYAWNWIRQHPGKGLEWIGYISYSGSTRYNPSLKSRVTITRDTSKNQFSLKLSSVTAADTAVYYCARRYRYDEGYGMDYWGQGTTVTVSS
# VL: DIQMTQSPSSLSASVGDRVTITCRASENIYSNLAWYQQKPGKAPKLLIYAATNLADGVPSRFSGSGSGTDFTLTISSLQPEDFATYYCQHFWGTPPWTFGGGTKVEIK
# modifications: human IgG1/kappa constant regions; Synthetic sequence hzL4.6L VH G27Y, S70T, V71R; Synthetic sequence hzL4L VL
# Columns and labels:
# rat ASGR1 = molecular target: T1, rat ASGR1; assay: Cell binding to rat ASGR1 transiently expressed by CHO-S cells (GUAVA); details: in words
# Procedure: Anti-human ASGR1 antibodies of this disclosure were examined for cross-reactivity with Cynomolgus macaque and rat ASGR1. Briefly, sequence encoding Cynomolgus macaque or rat ASGR1 was transiently transfected into CHO-S cells. Transfected cells were before performing cell binding assay. A total of about 1.5×10^4 transfected cells/well were added to 96-well V-bottom assay plate, incubated at 37° C., 5% CO2 for 48-72 hours, and then washed with culture medium before adding 100 μl of each ASGR1 antibody at different concentrations starting from 100 nM and 3-fold dilutions to a total of eight wells. The cells with antibody were incubated for 40 minutes at 4° C., then washed three times with 200 μl of fresh culture medium. To each well was added 50 μl PE conjugated goat anti-human Fc (SouthemBiotech) at 1:200 dilution in culture medium and then incubated at 4° C. for 20 minutes. After washing the plate once, the treated cells were resuspended in 200 μl culture medium and then the stained cells were analyzed on GUAVA® using Incyte software.
# [1] = molecular target: T2, human ASGR1 extracellular domain (ECD); assay: Effect of calcium on binding to human ASGR1 ECD (OCTET); design: key to Ca^2+ Sensitivity during: Association / Ca^2+ Sensitivity during: Dissociation / Ca^2+ Sensitivity: N = No; Y = Yes
# Procedure: The ability of anti-human ASGR1 antibodies of this disclosure to bind to human ASGR1 in the presence or absence of calcium in binding buffer was examined. Briefly, ASGR1 antibodies were bound to immobilized human ASGR1 extracellular domain (ECD) at saturating levels and subsequently dissociated under three different conditions as follows: (a) binding and dissociation with buffer containing calcium (PBS+1% BSA+0.2% Tween20+0.9 mM CaCl2), pH 7.4); (b) binding with buffer containing calcium and dissociation with buffer lacking calcium; and (c) binding and dissociation with buffer lacking calcium. Analysis of ASGR1 antibody binding to human ASGR1 ECD was performed using the OCTET® Red 96 instrument and analyzed using the OCTET®Data Analysis Software 9.0 (ForteBio). His-tagged human ASGR1 ECD was immobilized to OCTET® Penta-His biosensors and ASGR1 antibodies were subjected to avidity binding under the conditions described above. Association with the ASGR1 ECD was measured by the rate of and increase in magnitude of signal response at a given antibody concentration. Dissociation from the ASGR1 ECD was measured as the rate of loss in signal upon removal of the antibody and further incubation with or without Ca^2+. […] Also tested were humanized antibodies hzH8K-1 and hzL4L-7.
# Further analysis of the antibodies of this disclosure was to determine whether the presence of calcium was needed for binding (i.e., during association) of the antibodies to human ASGR1 ECD. […]
# rat CLEC10A ECD = molecular target: T3, rat CLEC10A ECD; assay: OCTET avidity binding to immobilized rat CLEC10A ECD; details: for Binding signal to rat CLEC10A ECD: in words; for Response, binding to rat CLEC10A ECD: test antibody at 25 μg/mL
# Procedure: Analysis of binding to the rat CLEC10A ECD was performed using the OCTET® Red 96 instrument (ForteBio). His-tagged rat CLEC10A ECD (R&D Systems) was immobilized to OCTET® Penta-His biosensors and subjected to avidity binding of test antibodies in kinetics buffer (PBS+1% BSA+0.2% Tween20+0.9 mM CaCl2) at pH 7.4) in the following steps: (1) hydration of Penta-His biosensors in kinetics buffer (10 min); (2) regeneration and neutralization of Penta-His biosensor in 10 mM glycine-HCl (pH 1.5) and kinetics buffer, respectively in triplicate; (3) baseline acquisition (30 s); (4) immobilization of rat CLEC10A ECD to Penta-His biosensors at a concentration of 10 μg/mL (180 s); (5) second baseline acquisition (60 s); (6) association of test antibody at 25 μg/mL (60 s); (7) dissociation in kinetics buffer (60 s).
# The interactions of test mAbs with rat CLEC10A ECD was analyzed using the OCTET® Data Analysis Software 9.0 (ForteBio).
# [2] = system: human PBMCs cultured with ASGR1-expressing tumor cell line HepG2; assay: TNF-α production by human PBMC co-cultured with HepG2 (AlphaLISA); format: cell-based; details: PBMC:HepG2 5:1, 24 hours
# Procedure: The effect on TNF-α production by human PBMCs co-cultured with ASGR1 expressing HepG2 tumor cells and in the presence of anti-ASGR1-TLR8 agonist conjugates was examined. An increase in TNF-α production by human PBMCs would indicate that myeloid cells are being activated. Briefly, peripheral blood mononuclear cells (PBMC) were isolated from normal human donor blood using SEPMATE™-50 PBMC Isolation Tubes ([…] Technologies) according to manufacturer's instructions. Isolated PBMC were cultured with the ASGR1-expressing tumor cell line HepG2 or the ASGR1-negative cell line HEK 293 at a 5:1 ratio in the presence of titrated concentrations of anti-ASGR1-TLR8 agonist conjugates (G2D-Compound 2.14, J4F-Compound 2.14, K2E-Compound 2.14, L4L-Compound 2.14, hzL4L-7-Compound 2.14, hzL4L-14-Compound 2.14, H8K-Compound 2.14, hzH8K-1-Compound 2.14, and hzH8K-10-Compound 2.14, as well as control conjugates comprised of ASGR1-mAb-A-Compound 2.14, ASGR1-mAb-B-Compound 2.14, ASGR1-mAb-C-Compound 2.14, anti-digoxin mAb-Compound 2.14, and unconjugated antibody controls). After 24 hours, cell-free supernatants were collected and stored at −80° C. prior to analysis. TNF-α levels in the cell-free supernatants were quantified using the TNF-α (human) AlphaLISA® Detection Kit (Perkin Elmer) according to manufacturer's instructions.
Molecule,Cross-reactivity with rat ASGR1 (rat ASGR1),Ca^2+ Sensitivity [1],Ca^2+ Sensitivity during: Association [1],Ca^2+ Sensitivity during: Dissociation [1],Binding signal to rat CLEC10A ECD (rat CLEC10A ECD),"Response, binding to rat CLEC10A ECD (rat CLEC10A ECD)",TNF-α production from human PBMCs [2],Sensitivity to calcium (difference in binding signal after dissociation >±10%) ([1]; in words)
B1,not rat cross-reactive,N,N,N,even less above background binding,0.0495 nm,more efficient at inducing TNF-α production as compared to the parent antibody conjugates,–
B2,not rat cross-reactive,N,N,N,No observable binding signal,— (Antibodies tested with response of <0.02 nm were below the limit of detection (—)),more efficient at inducing TNF-α production as compared to the parent antibody conjugates,lacking sensitivity to calcium
